Laboratory results reported in patent publication US20120135923A1, “Use of Melanocortins to Treat Dyslipidemia” (IPSEN PHARMA, S.A.S., priority 2009, published 2012).
Bridge positions count the residues as written; N and C are the ends. Square brackets hold non-standard residues; d marks the D form. Ends that are not written are not given here. 1Nal = N[C@@H](Cc1cccc2ccccc12)C(=O)O; 2Nal = N[C@@H](Cc1ccc2ccccc2c1)C(=O)O; d2Nal = N[C@H](Cc1ccc2ccccc2c1)C(=O)O; Bta = N[C@@H](Cc1csc2ccccc12)C(=O)O; Nle = CCCC[C@H](N)C(=O)O; GABA = NCCCC(=O)O; βAla = NCCC(=O)O

B1: Ac-c(Cys-Glu-His-D-2-Nal-Arg-2-Nal-Ala-Cys)-Pro-Pro-Lys-Asp-NH2 (peptide)
peptide: Ac-CEH[d2Nal]R[2Nal]ACPPKD-NH2
modifications: disulfide 1-8
SMILES: CC(=O)N[C@H]1CSSC[C@@H](C(=O)N2CCC[C@H]2C(=O)N2CCC[C@H]2C(=O)N[C@@H](CCCCN)C(=O)N[C@@H](CC(=O)O)C(N)=O)NC(=O)[C@H](C)NC(=O)[C@H](Cc2ccc3ccccc3c2)NC(=O)[C@H](CCCNC(=N)N)NC(=O)[C@@H](Cc2ccc3ccccc3c2)NC(=O)[C@H](Cc2c[nH]cn2)NC(=O)[C@H](CCC(=O)O)NC1=O
B2: Ac-c(Cys-Glu-His-D-2-Nal-Arg-1-Nal-Ala-Cys)-Pro-Pro-Lys-Asp-NH2 (peptide)
peptide: Ac-CEH[d2Nal]R[1Nal]ACPPKD-NH2
modifications: disulfide 1-8
SMILES: CC(=O)N[C@H]1CSSC[C@@H](C(=O)N2CCC[C@H]2C(=O)N2CCC[C@H]2C(=O)N[C@@H](CCCCN)C(=O)N[C@@H](CC(=O)O)C(N)=O)NC(=O)[C@H](C)NC(=O)[C@H](Cc2cccc3ccccc23)NC(=O)[C@H](CCCNC(=N)N)NC(=O)[C@@H](Cc2ccc3ccccc3c2)NC(=O)[C@H](Cc2c[nH]cn2)NC(=O)[C@H](CCC(=O)O)NC1=O
B3: Ac-c(Cys-Glu-His-D-2-Nal-Arg-Bal-Ala-Cys)-Pro-Pro-Lys-Asp-NH2 (peptide)
peptide: Ac-CEH[d2Nal]R[Bta]ACPPKD-NH2
modifications: disulfide 1-8
SMILES: CC(=O)N[C@H]1CSSC[C@@H](C(=O)N2CCC[C@H]2C(=O)N2CCC[C@H]2C(=O)N[C@@H](CCCCN)C(=O)N[C@@H](CC(=O)O)C(N)=O)NC(=O)[C@H](C)NC(=O)[C@H](Cc2csc3ccccc23)NC(=O)[C@H](CCCNC(=N)N)NC(=O)[C@@H](Cc2ccc3ccccc3c2)NC(=O)[C@H](Cc2c[nH]cn2)NC(=O)[C@H](CCC(=O)O)NC1=O
B4: Hydantoin(C(O)-(Nle-Gly))-c(Cys-D-Ala-His-D-Phe-Arg-Trp-Cys)-NH2 (peptide)
peptide: [Nle]GC[dA]H[dF]RWC-NH2
modifications: disulfide 3-9; also: N-terminal hydantoin: C(O) bridges X1 N-terminal N and G2 backbone N, bridge at N via C(O), other end not in the chain
B5: D-Phe-c(Cys-His-D-Phe-Arg-Trp-β-Ala-D-Cys)-Thr-NH2 (peptide)
peptide: [dF]CH[dF]RW[βAla][dC]T-NH2
modifications: disulfide 2-8; N-terminus assumed
SMILES: C[C@@H](O)[C@H](NC(=O)[C@H]1CSSC[C@H](NC(=O)[C@H](N)Cc2ccccc2)C(=O)N[C@@H](Cc2c[nH]cn2)C(=O)N[C@H](Cc2ccccc2)C(=O)N[C@@H](CCCNC(=N)N)C(=O)N[C@@H](Cc2c[nH]c3ccccc23)C(=O)NCCC(=O)N1)C(N)=O
B6: D-Phe-c(Cys-His-D-Phe-Arg-Trp-Gaba-D-Cys)-Thr-NH2 (peptide)
peptide: [dF]CH[dF]RW[GABA][dC]T-NH2
modifications: disulfide 2-8; N-terminus assumed
SMILES: C[C@@H](O)[C@H](NC(=O)[C@H]1CSSC[C@H](NC(=O)[C@H](N)Cc2ccccc2)C(=O)N[C@@H](Cc2c[nH]cn2)C(=O)N[C@H](Cc2ccccc2)C(=O)N[C@@H](CCCNC(=N)N)C(=O)N[C@@H](Cc2c[nH]c3ccccc23)C(=O)NCCCC(=O)N1)C(N)=O

How the values were obtained:
[1] = target: human melanocortin receptor subtype 1 (hMC1-R) (human), Q01726; experiment: [125I]-NDP-α-MSH competition, membranes
human melanocortin receptor subtype 1 (hMC1-R) (human), Q01726, sequence (Q01726 whole entry): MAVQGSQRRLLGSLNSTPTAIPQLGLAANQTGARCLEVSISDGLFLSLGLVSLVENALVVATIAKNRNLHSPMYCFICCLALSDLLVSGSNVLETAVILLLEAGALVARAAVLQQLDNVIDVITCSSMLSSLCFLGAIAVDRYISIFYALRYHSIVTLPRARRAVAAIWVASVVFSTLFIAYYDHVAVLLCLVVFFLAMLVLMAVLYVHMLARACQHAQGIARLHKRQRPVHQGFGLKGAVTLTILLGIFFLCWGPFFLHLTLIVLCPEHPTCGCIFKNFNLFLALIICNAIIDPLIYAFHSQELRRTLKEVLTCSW

[2] = target: human melanocortin receptor subtype 4 (hMC4-R) (human), P32245; experiment: [125I]-NDP-α-MSH competition, membranes
human melanocortin receptor subtype 4 (hMC4-R) (human), P32245, sequence (P32245 whole entry): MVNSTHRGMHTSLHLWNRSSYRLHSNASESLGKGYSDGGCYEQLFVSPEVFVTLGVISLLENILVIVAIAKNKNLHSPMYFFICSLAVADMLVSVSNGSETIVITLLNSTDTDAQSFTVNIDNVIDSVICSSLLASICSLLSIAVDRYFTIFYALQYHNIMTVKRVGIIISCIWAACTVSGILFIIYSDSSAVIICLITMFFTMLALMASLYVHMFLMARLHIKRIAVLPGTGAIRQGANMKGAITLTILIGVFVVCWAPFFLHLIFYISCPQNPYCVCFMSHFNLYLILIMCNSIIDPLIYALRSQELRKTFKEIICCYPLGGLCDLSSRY

[3] = target: human melanocortin receptor subtype 3 (hMC3-R) (human), P41968; experiment: [125I]-NDP-α-MSH competition, membranes
human melanocortin receptor subtype 3 (hMC3-R) (human), P41968, sequence (P41968 whole entry): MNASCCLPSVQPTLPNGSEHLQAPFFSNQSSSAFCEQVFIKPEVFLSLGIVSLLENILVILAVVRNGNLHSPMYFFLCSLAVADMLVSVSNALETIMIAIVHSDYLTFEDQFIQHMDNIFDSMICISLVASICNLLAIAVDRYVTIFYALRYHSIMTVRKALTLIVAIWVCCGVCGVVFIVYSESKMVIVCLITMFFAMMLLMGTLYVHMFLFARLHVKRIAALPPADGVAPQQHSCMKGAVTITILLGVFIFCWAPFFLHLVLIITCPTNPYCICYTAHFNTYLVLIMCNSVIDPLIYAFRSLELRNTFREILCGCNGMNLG

[4] = target: human melanocortin receptor subtype 5 (hMC5-R) (human), P33032; experiment: [125I]-NDP-α-MSH competition, membranes
human melanocortin receptor subtype 5 (hMC5-R) (human), P33032, sequence (P33032 whole entry): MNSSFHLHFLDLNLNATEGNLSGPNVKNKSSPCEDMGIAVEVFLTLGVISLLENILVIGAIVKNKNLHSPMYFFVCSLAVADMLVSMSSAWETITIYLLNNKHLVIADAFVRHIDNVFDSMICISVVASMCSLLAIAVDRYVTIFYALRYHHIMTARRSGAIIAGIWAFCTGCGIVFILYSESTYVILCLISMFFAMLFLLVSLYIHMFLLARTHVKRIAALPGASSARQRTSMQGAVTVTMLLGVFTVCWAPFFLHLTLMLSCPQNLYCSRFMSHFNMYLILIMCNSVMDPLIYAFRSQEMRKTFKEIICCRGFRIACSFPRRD

hMC5-R (human) = hMC5-R (human) (UniProt P33032); experiment: competition with [125I]-NDP-α-MSH, CHO-K1 membranes
hMC5-R (human), sequence (P33032 whole entry): as above

hMC4-R (human) = hMC4-R (human) (UniProt P32245); experiment: as above
hMC4-R (human), sequence (P32245 whole entry): as the sequence (P32245 whole entry) above

hMC1-R (human) [5] = target: hMC1-R (human) (UniProt Q01726); experiment: as above
hMC1-R (human), sequence (Q01726 whole entry): as the sequence (Q01726 whole entry) above

hMC3-R (human) = hMC3-R (human) (UniProt P41968); experiment: as above
hMC3-R (human), sequence (P41968 whole entry): as the sequence (P41968 whole entry) above

hMC1-R (human) [6] = target: hMC1-R (human) (UniProt Q01726); experiment: ratio Ki hMC1-R / Ki hMC4-R, same assay

Row | Binder | Ki [1] | Ki [2] | Ki [3] | Ki [4] | Ki (hMC5-R (human)) | Ki (hMC4-R (human)) | Ki (hMC1-R (human) [5]) | Ki (hMC3-R (human)) | Ki hMC1-R/MC4-R (hMC1-R (human) [6])
1 | B1 | 87.8 nM | 1.2 nM | 9.08 nM | 359 nM | – | – | – | – | –
2 | B2 | 124 nM | 1.11 nM | 17.8 nM | 348 nM | – | – | – | – | –
3 | B3 | 163 nM | 0.586 nM | 23 nM | 844 nM | – | – | – | – | –
4 | [dF]CH[d(Et)Tyr]RW[βAla][dC]T-NH2 (disulfide 2-8) [D-Phe-c(Cys-His-D-(Et)Tyr-Arg-Trp-β-Ala-D-Cys)-Thr-NH2] | – | – | – | – | 2.9 nM | 1.1 nM | 0.05 nM | 9.3 nM | 0
5 | B4 | 7.92 nM | 6.7 nM | 46.4 nM | 21.3 nM | – | – | – | – | –
6 | GGC[dA]H[dF]RWC-NH2 (disulfide 3-9; also: hydantoin ring from C(O) with Gly1-Gly2) [Hydantoin(C(O)-(Gly-Gly))-c(Cys-D-Ala-His-D-Phe-Arg-Trp-Cys)-NH2] | 20.9 nM | 8.32 nM | 69.7 nM | 50 nM | – | – | – | – | –
7 | AGC[dA]H[dF]RWC-NH2 (disulfide 3-9; also: hydantoin ring: C(O) bridging Ala-Gly) [Hydantoin(C(O)-(Ala-Gly))-c(Cys-D-Ala-His-D-Phe-Arg-Trp-Cys)-NH2] | 13.9 nM | 5.73 nM | 38.4 nM | 18.9 nM | – | – | – | – | –
8 | B5 | – | – | – | – | 344 nM | 2.58 nM | 0.207 nM | 43.2 nM | 0.08
9 | B6 | – | – | – | – | 1260 nM | 4.75 nM | 0.42 nM | 106 nM | 0.09
